pKd: −log10 of the molar value.

Holding throughout (assay): Kd (EC50 corrected by depletion factor)
One data set addresses ELAVL2 (UniProt Q12926). The method in brief:
(§1)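 HEK293-FT lysate (2.5 mg protein/well) was pre-incubated 1 h at 4°C with free RNA oligos (0 nM to 30 μM), then 30 min at 4°C with the same 5′-amino-C6 oligos coupled to NHS-Sepharose beads. Bound proteins were quantified by label-free LC-MS/MS in three biological replicates and two independent experiments, and normalised to the water control. EC50 came from a four-parameter log-logistic fit; Kd is EC50 times a protein-dependent depletion factor.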

A further data set deals with T1, FIP1L1 (UniProt Q6UN15).
T1 sequence: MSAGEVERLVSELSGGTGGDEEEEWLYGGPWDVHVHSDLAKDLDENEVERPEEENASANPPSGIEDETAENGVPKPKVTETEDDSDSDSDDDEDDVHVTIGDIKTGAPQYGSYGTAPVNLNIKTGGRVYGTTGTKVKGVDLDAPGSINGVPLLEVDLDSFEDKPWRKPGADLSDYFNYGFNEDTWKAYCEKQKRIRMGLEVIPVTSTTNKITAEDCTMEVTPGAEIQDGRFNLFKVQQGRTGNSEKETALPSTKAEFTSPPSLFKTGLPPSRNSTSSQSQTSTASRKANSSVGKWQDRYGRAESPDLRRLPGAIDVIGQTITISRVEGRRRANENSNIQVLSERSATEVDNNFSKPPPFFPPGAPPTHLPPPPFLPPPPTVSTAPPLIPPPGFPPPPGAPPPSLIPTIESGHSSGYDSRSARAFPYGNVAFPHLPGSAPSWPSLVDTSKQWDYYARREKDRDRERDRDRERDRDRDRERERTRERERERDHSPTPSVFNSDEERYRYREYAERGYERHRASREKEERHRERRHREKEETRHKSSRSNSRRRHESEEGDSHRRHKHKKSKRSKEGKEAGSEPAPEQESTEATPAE
The essentials: as §1

The next data set concerns the target MSI2 (UniProt Q96DH6). The method in brief:
as §1

A further data set deals with T2, ISY1 (UniProt Q9ULR0).
T2 sequence: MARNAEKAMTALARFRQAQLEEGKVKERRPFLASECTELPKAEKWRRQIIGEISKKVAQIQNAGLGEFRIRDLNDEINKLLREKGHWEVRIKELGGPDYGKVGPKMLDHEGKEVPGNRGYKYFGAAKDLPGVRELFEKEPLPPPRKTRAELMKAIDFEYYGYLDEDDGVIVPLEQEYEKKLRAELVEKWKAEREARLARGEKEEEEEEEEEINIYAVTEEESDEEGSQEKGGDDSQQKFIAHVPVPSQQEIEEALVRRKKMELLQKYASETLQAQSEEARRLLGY
The method in brief:
as §1

The next data set deals with T3, DAZAP1 (UniProt Q96EP5).
T3 sequence: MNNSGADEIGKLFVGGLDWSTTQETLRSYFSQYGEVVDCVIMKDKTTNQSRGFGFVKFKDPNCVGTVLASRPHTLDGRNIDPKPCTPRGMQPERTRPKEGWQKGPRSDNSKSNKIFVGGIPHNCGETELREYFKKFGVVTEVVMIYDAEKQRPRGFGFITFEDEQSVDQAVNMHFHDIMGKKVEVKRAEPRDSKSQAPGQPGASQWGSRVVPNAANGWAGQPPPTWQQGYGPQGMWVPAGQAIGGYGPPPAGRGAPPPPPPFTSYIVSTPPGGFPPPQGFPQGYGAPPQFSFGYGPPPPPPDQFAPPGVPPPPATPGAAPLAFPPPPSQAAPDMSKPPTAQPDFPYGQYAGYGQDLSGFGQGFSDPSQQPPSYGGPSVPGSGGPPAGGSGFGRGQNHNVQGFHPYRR
The method in brief:
as §1

A further data set concerns the target T4, CPSF2 (UniProt Q9P2I0).
T4 sequence: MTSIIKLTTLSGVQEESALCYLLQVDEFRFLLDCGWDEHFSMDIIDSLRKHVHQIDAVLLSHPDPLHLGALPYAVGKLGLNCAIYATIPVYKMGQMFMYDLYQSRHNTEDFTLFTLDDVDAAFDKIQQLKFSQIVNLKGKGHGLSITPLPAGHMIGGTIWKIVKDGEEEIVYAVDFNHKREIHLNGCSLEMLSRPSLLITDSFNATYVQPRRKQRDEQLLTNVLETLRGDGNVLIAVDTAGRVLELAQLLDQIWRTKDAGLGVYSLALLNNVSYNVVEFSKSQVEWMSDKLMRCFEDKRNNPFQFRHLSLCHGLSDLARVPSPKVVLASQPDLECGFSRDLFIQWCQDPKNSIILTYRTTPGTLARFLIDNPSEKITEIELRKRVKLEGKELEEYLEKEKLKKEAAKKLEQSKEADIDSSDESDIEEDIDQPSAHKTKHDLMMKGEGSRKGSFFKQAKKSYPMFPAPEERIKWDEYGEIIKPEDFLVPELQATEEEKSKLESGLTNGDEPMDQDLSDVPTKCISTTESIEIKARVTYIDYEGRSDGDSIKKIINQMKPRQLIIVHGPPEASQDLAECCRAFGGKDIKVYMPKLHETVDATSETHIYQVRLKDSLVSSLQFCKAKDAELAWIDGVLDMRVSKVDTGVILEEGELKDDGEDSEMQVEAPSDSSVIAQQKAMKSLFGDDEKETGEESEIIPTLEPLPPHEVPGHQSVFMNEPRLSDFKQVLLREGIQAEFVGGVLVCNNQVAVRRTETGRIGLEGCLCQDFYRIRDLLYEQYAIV
The essentials: as §1

Another data set deals with PABPC1 (UniProt P11940). The method in brief: as §1
PABPC1, sequence (P11940 whole entry): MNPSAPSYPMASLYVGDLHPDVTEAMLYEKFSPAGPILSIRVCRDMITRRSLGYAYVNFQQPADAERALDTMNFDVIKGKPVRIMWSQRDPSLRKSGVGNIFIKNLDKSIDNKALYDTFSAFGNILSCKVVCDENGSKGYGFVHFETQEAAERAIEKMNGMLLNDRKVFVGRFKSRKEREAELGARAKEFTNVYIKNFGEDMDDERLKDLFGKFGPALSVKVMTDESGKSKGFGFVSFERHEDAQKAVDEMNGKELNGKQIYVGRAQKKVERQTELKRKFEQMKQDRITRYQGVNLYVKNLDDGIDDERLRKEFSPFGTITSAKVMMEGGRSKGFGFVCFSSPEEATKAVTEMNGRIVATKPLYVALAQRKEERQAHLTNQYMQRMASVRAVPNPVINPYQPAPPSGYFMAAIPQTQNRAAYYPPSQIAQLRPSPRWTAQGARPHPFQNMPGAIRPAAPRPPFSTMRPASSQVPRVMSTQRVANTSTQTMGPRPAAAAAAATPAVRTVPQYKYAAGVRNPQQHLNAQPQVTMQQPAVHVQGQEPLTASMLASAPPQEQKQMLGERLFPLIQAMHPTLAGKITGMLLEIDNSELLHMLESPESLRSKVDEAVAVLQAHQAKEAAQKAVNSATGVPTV

ELAVL2, sequence (Q12926 whole entry): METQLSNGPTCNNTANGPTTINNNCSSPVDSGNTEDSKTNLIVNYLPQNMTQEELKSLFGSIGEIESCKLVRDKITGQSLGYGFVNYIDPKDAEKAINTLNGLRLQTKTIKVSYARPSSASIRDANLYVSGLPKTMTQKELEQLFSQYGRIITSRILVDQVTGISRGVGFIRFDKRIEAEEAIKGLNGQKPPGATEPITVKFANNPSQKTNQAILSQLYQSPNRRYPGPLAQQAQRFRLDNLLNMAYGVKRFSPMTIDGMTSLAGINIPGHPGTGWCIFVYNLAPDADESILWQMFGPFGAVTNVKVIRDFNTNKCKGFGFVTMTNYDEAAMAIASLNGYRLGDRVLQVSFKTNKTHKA
MSI2, sequence (Q96DH6 whole entry): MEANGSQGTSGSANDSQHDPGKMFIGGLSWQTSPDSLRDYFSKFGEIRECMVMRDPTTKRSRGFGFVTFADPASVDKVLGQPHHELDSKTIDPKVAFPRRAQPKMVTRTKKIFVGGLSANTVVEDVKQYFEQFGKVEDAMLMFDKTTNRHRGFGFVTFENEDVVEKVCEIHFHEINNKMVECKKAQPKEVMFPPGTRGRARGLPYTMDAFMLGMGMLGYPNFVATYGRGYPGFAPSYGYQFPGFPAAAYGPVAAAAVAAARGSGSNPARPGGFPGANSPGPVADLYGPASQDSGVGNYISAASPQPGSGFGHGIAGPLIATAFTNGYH

Regarding AAUAAA, the pKd was 5.05 in the data set with ELAVL2; 8.08 with FIP1L1; 6.98 with MSI2; 6.70 with ISY1; 6.95 in the data set with DAZAP1; 8.25 with CPSF2. Further, in the data set with PABPC1, the pKd was 5.13.
With CUGUCCU, the negative-log Kd (pKd) with PABPC1 is 7.02.
As for UAUUUAU, the pKd with ELAVL2 was 5.43; with FIP1L1, 6.32; with MSI2 it was 6.32; with ISY1, 6.38; with DAZAP1 it was 6.54; in the data set with CPSF2 it was 6.35.

(Values after the supplement of paper PMC6379048.)
